The results in this text go back to patent publication US8748104.

Where two headings read alike, the source gives them in different places.

Data set [1] concerns the target skeletal Troponin I (UniProt P48788). The following applies: Luminex bead fluorescence assay, streptavidin-phycoerythrin detection; room temperature 1 h, PBS washes.
For data set [2] the target is unchanged. As to conditions: Luminex bead fluorescence assay, streptavidin-phycoerythrin detection; room temperature 1 h, PBS washes. The source holds these as a separate data set.

Chain of UniProt P48788 (P48788 2-182): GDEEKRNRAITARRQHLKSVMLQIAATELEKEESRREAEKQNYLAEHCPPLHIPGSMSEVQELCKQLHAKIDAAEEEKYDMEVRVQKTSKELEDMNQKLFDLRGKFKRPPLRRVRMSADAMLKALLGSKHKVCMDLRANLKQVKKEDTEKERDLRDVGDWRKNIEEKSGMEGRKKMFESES

Sequence “TTAGGGGTGGTGTGGTTGGCAATTC [SEQ ID NO: 2 aptamer]” yielded a dissociation constant (Kd) in the data set with skeletal Troponin I [1] of 5 nM.
For “GGGATGGGGTGGGTGGCCAGCGATT [SEQ ID NO: 1 aptamer]”, the Kd in the data set with skeletal Troponin I [2] came out at 37.7 nM.

As a reminder, the Kd is the free concentration of one partner at which half of the binding sites on the other are occupied at equilibrium, for simple one-to-one binding. A higher Kd goes with weaker binding.
